# In patent US7083962B2, “Carbonyl reductases, polynucleotides comprising DNA encoding the same, methods for producing the same, and methods for producing optically active alcohol utilizing the same” (Daicel Chemical Industries Ltd., priority 2004, dated 2006):
# What was measured:
# [1] = system: carbonyl reductase; experiment: Substrate specificity: NADPH-dependent reduction by the carbonyl reductase obtained in Example 1; format: biochemical, Torulaspora delbrueckii; conditions: substrate 5 mM, coenzyme NADPH; reduction of 3,4-dimethoxyphenylacetone regarded as 100
# Description: (§1) A reaction solution comprising 50 mM potassium phosphate buffer (pH 6.5), 0.2 mM NADPH, 5 mM 3,4-dimethoxyphenylacetone, and an enzyme is reacted at 30° C. Any decrease in absorbance at 340 nm accompanying a decrease in NADPH is measured. 1U is defined as the amount of enzyme which catalyzes a 1 μmol decrease of NADPH in one minute.
# (§2) The enzyme obtained in Example 1 was reacted with various ketones, ketoesters, and soon. The activities of the reduction reactions were expressed as relative activities, where the reduction of 3,4-dimethoxyphenylacetone was regarded as 100 (Table 2) (substrate specificity of carbonyl reductase). The activity of dehydrogenating 1-(3,4-dimethoxyphenyl)-2-propanol was measured as follows: A reaction was performed at 30° C. in a reaction solution comprising 50 mM Tris-HCl buffer (pH 8.5), 2.5 mM NADP^+, 5 mM 1-(3,4-dimethoxyphenyl)-2-propanol, and the enzyme. An increase in absorbance at 340 nm, accompanying NADPH production, was measured. 1 U was defined as the amount of enzyme catalyzing the production of 1 μmol NADPH per minute. In addition, the activity of reducing NADH-dependent 3,4-dimethoxyphenylacetone was measured as follows: A reaction was performed at 30° C. in a reaction solution comprising 50 mM potassium phosphate buffer (pH 6.5), 0.2 mM NADH, 5 mM 3,4-dimethoxyphenylacetone, and the enzyme, and decrease in absorbance at 340 nm, accompanying decrease in NADH, was measured. 1 U was defined as the amount of enzyme catalyzing a decrease of 1 μmol NADH per minute.
# [2] = system: carbonyl reductase; experiment: NADH-dependent 3,4-dimethoxyphenylacetone-reducing activity; format: biochemical, Torulaspora delbrueckii; conditions: substrate 5 mM, coenzyme NADH, pH 6.5, 30° C.
# Description: as §2
# [3] = Enzymatic synthesis of (S)-1-(3,4-dimethoxyphenyl)-2-propanol: optical purity and reaction yield; format: biochemical; conditions: 0.25 U carbonyl reductase, 50 mM 3,4-dimethoxyphenylacetone, overnight, 25° C., pH 6.5
# Description: A reaction was performed overnight at 25° C. in 1 mL of a reaction solution comprising 200 mM potassium phosphate buffer (pH 6.5), 1 mM NADP^+, 2 U glucose dehydroganase (Wako Pure Chemical Industries, Ltd.), 250 mM glucose, 0.25 U carbonyl reductase, and 50 mM 3,4-dimethoxyphenylacetone. The optical purity of the produced (S)-1-(3,4-dimethoxyphenyl)-2-propanol was measured as follows: One mL of ethyl acetate was added to 0.5 mL of the reaction solution to extract (S)-1-(3,4-dimethoxyphenyl)-2-propanol, and the extraction solvent was desolvated. 0.5 mL of a dissolving solution (n-hexane: isopropanol=4:1) was then added to dissolve the extract, which was then analyzed by liquid chromatography using an optical resolution column. CHIRALCEL OF (4.6 mm×25 cm; Daicel Chemical Industries, Ltd.) was used as the optical resolution column. Chromatography was performed with a wavelength of 220 nm, a flow rate of 1.0 mL/min, and at 40° C. using an eluting solution of n-hexane: isopropanol=4:1.
# In addition, the (S)-1-(3,4-dimethoxyphenyl)-2-propanol thus-produced was quantified using gas chromatography, and a yield relative to the raw starting material, 3,4-dimethoxyphenylacetone, was obtained. Specifically, the analysis was performed at a column temperature of 210° C., using Thermon 3000 (10%)-Chromosorb W (AW-DMCS, Mesh 60–80; 3.2 mm×210 cm) with a hydrogen flame ionization detector (FID). The resulting reaction yield was about 95%.
# To prepare crude enzyme solution for enzyme reaction, the crude enzyme solution prepared in Example 18 was concentrated ten-folds using a UF membrane. This solution was reacted overnight at 25° C. in 1 mL of a reaction solution comprising 200 mM potassium phosphate buffer (pH 6.5), 1 mM NADP^+, 2 U glucose dehydrogenase (Wako Pure Chemical Industries, Ltd.), 250 mM glucose, 0.2 U homolog enzyme, and 50 mM 3,4-dimethoxyphenylacetone. Optical purity was measured and the produced (S)-1-(3,4-dimethoxyphenyl)-2-propanol was quantified as in Example 6. As a result, YGL157w (pSE-YGP7) produced 93.7% ee (S)-1-(3,4-dimethoxyphenyl)-2-propanol at a yield of 66%, YGL039w (pSE-YGD9) produced 93.6% ee at a yield of 94%, and YDR541c (pSE-YDR1) produced 94.8% ee at a yield of 6%.
# [4] = 3,4-dimethoxyphenylacetone-reducing activity of the purified enzyme (specific activity, pH and temperature dependency); format: biochemical, Torulaspora delbrueckii; conditions: 3,4-dimethoxyphenylacetone reduction, NADPH, pH 6.5, 30° C.
# Description: as §1
# The specific activity of the purified enzyme was 196 mU/mg.
# By changing the pH using potassium phosphate buffer, sodium acetate buffer, and Britton-Robinson buffer, the 3,4-dimethoxyphenylacetone-reducing activity of the enzyme obtained in Example 1 was investigated. Activity at each pH was expressed as a relative activity, where the maximum activity was regarded as 100 (FIG. 2). Optimal pH (showing 80% or more relative activity) was 5.5 to 6.5.
# Of the standard reaction conditions, only the temperature was changed, and the 3,4-dimethoxyphenylacetone-reducing activity of the enzyme obtained in Example 1 was then measured. Activity at each temperature was expressed as a relative activity, where the maximum activity was regarded as 100 (FIG. 3). Optimal temperature (showing 80% or more relative activity) was 50° C. to 55° C.
Molecule,Relative activity [1] [%],Relative activity [2] [%],"Optical purity of the produced (S)-1-(3,4-dimethoxyphenyl)-2-propanol [3] [% ee]","Reaction yield relative to 3,4-dimethoxyphenylacetone [3]",Specific activity of the purified enzyme [4] [mU/mg]
"COc1ccc(CC(C)=O)cc1OC [3,4-Dimethoxyphenylacetone]",100,0.0,,,
"carbonyl reductase: NADPH-dependent carbonyl reductase purified from Torulaspora delbrueckii JCM 5921; amino acid sequence SEQ ID NO: 2 (protein, listed as Torulaspora delbrueckii) MSILVSGATGFIALHVVSDLLKQDYKVIGTVRSQEKADKLRKQFGNNPNLSFELVSDIAAPEAFDKVFQKHGKDIKVVLHTASPFTLETTNYEKDLLLPAVNGTKSILESIKKYAADSVERVVITSSYAAVMNVSKEGDGSIVYTEKDWNPATWENCQIDGLNAYCGSKKLAEKAAWDFFEDNKNVVKFKLSMINPTYVFGPQLFDEDVKDKLNTSCELINSIIKNNPQVGYLLENIKGHFVDVRDVAKAHLVAFQKDEAIGQRLLTSNGRFAYQDLVDIINEDFPQLKGKVIVGKPGAGKQLYGTFPDINNTRSKEILGFEFISLHKSVHDTAAQVLKKEGKL",,,≥ 99,about 95%,196
